Experimental findings from publication PMC3777995, “The Inhibitory Helix Controls the Intramolecular Conformational Switching of the C-Terminus of STIM1” (PLoS ONE, 2013) are described below.

What is called stoichiometry N is the number of molecules, sites or subunits per partner or assembly.

“And” between values parts separate entries of the source, which are not always exact repeats. Equal entries are not always repeated.

Series [1] deals with the molecule itself. Description: AUC; sedimentation velocity, 42,000 rpm, 4°C, interference detection; approximately 6 mg/ml CC1-IH, 1.57 mg/ml CC1, 1.2 mg/ml MBP-IH; 20 mM Tris-HCl pH 8.0, 200 mM NaCl, 1 mM EDTA; self-associating multimerization model.
Series [2] concerns the molecule itself. In words: SEC; HiLoad 26/60 Superdex 200 and Superdex 200 columns calibrated with protein standards; 20 mM Tris-HCl pH 8.0, 200 mM NaCl, 1 mM EDTA.

B1: wild-type CC1-IH (human STIM1 amino acids 237-340) (domain or fragment, UniProt Q13586 237-340, looked up)
chain: SKEHMKKMMKDLEGLHRAEQSLHDLQERLHKAQEEHRTVEVEKVHLEKKLRDEINLAKQEAQRLKELREGTENERSRQKYAEEELEQVREALRKAEKELESHSS
notes: Predominantly a dimer and partially a tetramer by AUC; His tag removed with PreScission protease; source: E. coli BL21(DE3) Codon-Plus, purified (Ni-NTA, Q-Sepharose, Superdex-200)
As to B1, the “stoichiometry N” value in series [1] was 2 and 4.

B2: IH-only fragment of STIM1 (peptide, UniProt Q13586 310-340, looked up)
chain: ERSRQKYAEEELEQVREALRKAEKELESHSS
notes: limits 310-340 are printed for the MBP-tagged IH from which this fragment was cut; Theoretical mass 3.7 kDa; also called IH-only protein; source: E. coli, obtained by PreScission digestion of purified MBP-IH, purified (Superdex 200)
As to B2, the “stoichiometry N” value in series [2] amounted to 2.

B3: MBP-IH fusion protein (MBP-tagged IH, STIM1 residues 310-340) (domain or fragment, human, UniProt Q13586 310-340, looked up)
chain: ERSRQKYAEEELEQVREALRKAEKELESHSS
notes: made by loop-out of the CC1 fragment from MBP-CC1-IH; Theoretical mass 49 kDa; a PreScission-cleavable segment stands between MBP and IH; also called IH-MBP fusion protein; source: E. coli, purified (MBPTrap, Q-Sepharose, Superdex-200)
For B3, the “stoichiometry N” value in series [2] amounted to 2.
